Test results from paper PMC10410607.

What was measured:
[1] = biological target: histidine-tagged human C5a (human) (UniProt P01031); test: SPR; Biacore X100; His-C5a captured on a Ni-activated NTA chip at 25 RU; S512A-ScpA or S512A-79ΔPro flowed at 5.625-90 nM, 30 uL/min, association 180 s, dissociation 200 s; 10 mM HEPES-KOH pH 7.5, 150 mM NaCl, 0.005% Tween 20, 50 uM EDTA; global fit with a Langmuir model; triplicates
[2] = biological target: histidine-tagged human C5a (human) (UniProt P01031); test: SPR; Biacore X100; His-C5a captured on a Ni-activated NTA chip at 25 RU; S512A-ScpA or S512A-79ΔPro flowed at 5.625-90 nM, 30 uL/min, association 180 s, dissociation 200 s; 10 mM HEPES-KOH pH 7.5, 150 mM NaCl, 0.005% Tween 20, 50 uM EDTA; global fit, Langmuir model; triplicates

| Substance | koff [1] [s⁻¹] | kon [1] [M⁻¹ s⁻¹] | Kd [1] [nM] | Kd [2] [nM] |
| --- | --- | --- | --- | --- |
| S512A-ScpA, active site mutated Streptococcus pyogenes C5a peptidase (amino acids 32-1032) (from UniProt P15926 32-1032) (enzyme) | 0.00638 | 182000 |  |  |
| S512A-ScpA, active site mutated Streptococcus pyogenes C5a peptidase (amino acids 32-1032) (from UniProt P15926 32-1032) |  |  | 25 |  |
| S512A-79ΔPro, active site mutated propeptide-truncated ScpA (amino acids 79-1032) (from UniProt P15926 79-1032) (enzyme) | 0.00467 | 187000 | 35 |  |
| S512A-79ΔPro (active site mutated, propeptide truncated ScpA, amino acids 79-1032) (from UniProt P15926 79-1032) (enzyme) |  |  |  | 25 |
| S512A-ScpA (active site mutated Streptococcus pyogenes C5a peptidase, amino acids 32-1032) (from UniProt P15926 32-1032) (enzyme) |  |  |  | 35 |
